Laboratory results taken from the RNAGym collection of RNA variant scans (doi:10.1021/acssynbio.7b00057).

B1: Pistol ribozyme (parent)
chain: GGGUCGUUGUUCCAUAAUCGCGUGGAUAUGGCACGCAAGUUUCUACCGGGCACCGUAAAUGUCCGACUGGAGCCGUUCGGGCGGCUAUAAACAGACCUCAGGCCCGAAGCGUGGCGGCACCUGCCGCCGGUGGUAAAAAAGAUCGGAAGAGCACACGUCU

Variants of: B1
Assay: aptazyme ON/OFF ratio, guanine; higher = stronger switching; co-transcriptional cleavage with and without guanine

Going from GGGUCGUACGAACAUAAUCGCGUGGAUAUGGCACGCAAGUUUCUACCGGGCACCGUAAAUGUCCGACUGGAGCCGUUCGGGCGGCUAUAAACAGACCUCAGGCCCGAAGCGUGGCGGCACCUGCCGCCGGUGGUAAAAAAGAUCGGAAGAGCACACGUCU to GGGUCGUACGAGCAUAAUCGCGUGGAUAUGGCACGCAAGUUUCUACCGGGCACCGUAAAUGUCCGACUGGAGCCGUUCGGGCGGCUAUAAACAGACCUCAGGCCCGAAGCGUGGCGGCACCUGCCGCCGGUGGUAAAAAAGAUCGGAAGAGCACACGUCU, the “aptazyme ON/OFF ratio” value falls from 1.31 to 1.28.

First: GGGUCGUACCGGUAUAAUCGCGUGGAUAUGGCACGCAAGUUUCUACCGGGCACCGUAAAUGUCCGACUGGAGCCGUUCGGGCGGCUAUAAACAGACCUCAGGCCCGAAGCGUGGCGGCACCUGCCGCCGGUGGUAAAAAAGAUCGGAAGAGCACACGUCU
Second: GGGUCGUACCGGAAUAAUCGCGUGGAUAUGGCACGCAAGUUUCUACCGGGCACCGUAAAUGUCCGACUGGAGCCGUUCGGGCGGCUAUAAACAGACCUCAGGCCCGAAGCGUGGCGGCACCUGCCGCCGGUGGUAAAAAAGAUCGGAAGAGCACACGUCU
The “aptazyme ON/OFF ratio” value of the first is lower: 1.09 for the first, 1.14 for the second.

First: GGGUCGUACCGGGAUAAUCGCGUGGAUAUGGCACGCAAGUUUCUACCGGGCACCGUAAAUGUCCGACUGGAGCCGUUCGGGCGGCUAUAAACAGACCUCAGGCCCGAAGCGUGGCGGCACCUGCCGCCGGUGGUAAAAAAGAUCGGAAGAGCACACGUCU
Second: GGGUCGUACGAGAAUAAUCGCGUGGAUAUGGCACGCAAGUUUCUACCGGGCACCGUAAAUGUCCGACUGGAGCCGUUCGGGCGGCUAUAAACAGACCUCAGGCCCGAAGCGUGGCGGCACCUGCCGCCGGUGGUAAAAAAGAUCGGAAGAGCACACGUCU
The “aptazyme ON/OFF ratio” value of the first is lower: 1.12 for the first, 1.26 for the second.

First: GGGUCGUACGAGGAUAAUCGCGUGGAUAUGGCACGCAAGUUUCUACCGGGCACCGUAAAUGUCCGACUGGAGCCGUUCGGGCGGCUAUAAACAGACCUCAGGCCCGAAGCGUGGCGGCACCUGCCGCCGGUGGUAAAAAAGAUCGGAAGAGCACACGUCU
Second: GGGUCGUACGAGUAUAAUCGCGUGGAUAUGGCACGCAAGUUUCUACCGGGCACCGUAAAUGUCCGACUGGAGCCGUUCGGGCGGCUAUAAACAGACCUCAGGCCCGAAGCGUGGCGGCACCUGCCGCCGGUGGUAAAAAAGAUCGGAAGAGCACACGUCU
The “aptazyme ON/OFF ratio” value of the first is higher: 1.52 for the first, 1.15 for the second.

Compared with GGGUCGUACGUCUAUAAUCGCGUGGAUAUGGCACGCAAGUUUCUACCGGGCACCGUAAAUGUCCGACUGGAGCCGUUCGGGCGGCUAUAAACAGACCUCAGGCCCGAAGCGUGGCGGCACCUGCCGCCGGUGGUAAAAAAGAUCGGAAGAGCACACGUCU, GGGUCGUACGUCGAUAAUCGCGUGGAUAUGGCACGCAAGUUUCUACCGGGCACCGUAAAUGUCCGACUGGAGCCGUUCGGGCGGCUAUAAACAGACCUCAGGCCCGAAGCGUGGCGGCACCUGCCGCCGGUGGUAAAAAAGAUCGGAAGAGCACACGUCU is lower in “aptazyme ON/OFF ratio” value: 1.31 for the first, 1.17 for the second.

First: GGGUCGUACGUCAAUAAUCGCGUGGAUAUGGCACGCAAGUUUCUACCGGGCACCGUAAAUGUCCGACUGGAGCCGUUCGGGCGGCUAUAAACAGACCUCAGGCCCGAAGCGUGGCGGCACCUGCCGCCGGUGGUAAAAAAGAUCGGAAGAGCACACGUCU
Second: GGGUCGUACCGUGAUAAUCGCGUGGAUAUGGCACGCAAGUUUCUACCGGGCACCGUAAAUGUCCGACUGGAGCCGUUCGGGCGGCUAUAAACAGACCUCAGGCCCGAAGCGUGGCGGCACCUGCCGCCGGUGGUAAAAAAGAUCGGAAGAGCACACGUCU
The “aptazyme ON/OFF ratio” value of the first is higher: 1.38 for the first, 1.08 for the second.

GGGUCGUACCGUAAUAAUCGCGUGGAUAUGGCACGCAAGUUUCUACCGGGCACCGUAAAUGUCCGACUGGAGCCGUUCGGGCGGCUAUAAACAGACCUCAGGCCCGAAGCGUGGCGGCACCUGCCGCCGGUGGUAAAAAAGAUCGGAAGAGCACACGUCU and GGGUCGUACCGUUAUAAUCGCGUGGAUAUGGCACGCAAGUUUCUACCGGGCACCGUAAAUGUCCGACUGGAGCCGUUCGGGCGGCUAUAAACAGACCUCAGGCCCGAAGCGUGGCGGCACCUGCCGCCGGUGGUAAAAAAGAUCGGAAGAGCACACGUCU are the same in “aptazyme ON/OFF ratio” value: 1.07 for the first, 1.07 for the second.

Going from GGGUCGUACGAAAAUAAUCGCGUGGAUAUGGCACGCAAGUUUCUACCGGGCACCGUAAAUGUCCGACUGGAGCCGUUCGGGCGGCUAUAAACAGACCUCAGGCCCGAAGCGUGGCGGCACCUGCCGCCGGUGGUAAAAAAGAUCGGAAGAGCACACGUCU to GGGUCGUACGAAUAUAAUCGCGUGGAUAUGGCACGCAAGUUUCUACCGGGCACCGUAAAUGUCCGACUGGAGCCGUUCGGGCGGCUAUAAACAGACCUCAGGCCCGAAGCGUGGCGGCACCUGCCGCCGGUGGUAAAAAAGAUCGGAAGAGCACACGUCU, the “aptazyme ON/OFF ratio” value rises from 1.18 to 1.21.

Compared with GGGUCGUACGAAGAUAAUCGCGUGGAUAUGGCACGCAAGUUUCUACCGGGCACCGUAAAUGUCCGACUGGAGCCGUUCGGGCGGCUAUAAACAGACCUCAGGCCCGAAGCGUGGCGGCACCUGCCGCCGGUGGUAAAAAAGAUCGGAAGAGCACACGUCU, GGGUCGUACGUUGAUAAUCGCGUGGAUAUGGCACGCAAGUUUCUACCGGGCACCGUAAAUGUCCGACUGGAGCCGUUCGGGCGGCUAUAAACAGACCUCAGGCCCGAAGCGUGGCGGCACCUGCCGCCGGUGGUAAAAAAGAUCGGAAGAGCACACGUCU is lower in “aptazyme ON/OFF ratio” value: 1.16 for the first, 1.11 for the second.

First: GGGUCGUACGUUUAUAAUCGCGUGGAUAUGGCACGCAAGUUUCUACCGGGCACCGUAAAUGUCCGACUGGAGCCGUUCGGGCGGCUAUAAACAGACCUCAGGCCCGAAGCGUGGCGGCACCUGCCGCCGGUGGUAAAAAAGAUCGGAAGAGCACACGUCU
Second: GGGUCGUACGUUAAUAAUCGCGUGGAUAUGGCACGCAAGUUUCUACCGGGCACCGUAAAUGUCCGACUGGAGCCGUUCGGGCGGCUAUAAACAGACCUCAGGCCCGAAGCGUGGCGGCACCUGCCGCCGGUGGUAAAAAAGAUCGGAAGAGCACACGUCU
The “aptazyme ON/OFF ratio” value of the first is higher: 1.22 for the first, 1.21 for the second.

First: GGGUCGUACGUAGAUAAUCGCGUGGAUAUGGCACGCAAGUUUCUACCGGGCACCGUAAAUGUCCGACUGGAGCCGUUCGGGCGGCUAUAAACAGACCUCAGGCCCGAAGCGUGGCGGCACCUGCCGCCGGUGGUAAAAAAGAUCGGAAGAGCACACGUCU
Second: GGGUCGUACGUAAAUAAUCGCGUGGAUAUGGCACGCAAGUUUCUACCGGGCACCGUAAAUGUCCGACUGGAGCCGUUCGGGCGGCUAUAAACAGACCUCAGGCCCGAAGCGUGGCGGCACCUGCCGCCGGUGGUAAAAAAGAUCGGAAGAGCACACGUCU
The “aptazyme ON/OFF ratio” value of the first is lower: 1.03 for the first, 1.19 for the second.

First: GGGUCGUACGUAUAUAAUCGCGUGGAUAUGGCACGCAAGUUUCUACCGGGCACCGUAAAUGUCCGACUGGAGCCGUUCGGGCGGCUAUAAACAGACCUCAGGCCCGAAGCGUGGCGGCACCUGCCGCCGGUGGUAAAAAAGAUCGGAAGAGCACACGUCU
Second: GGGUCGUACGUCCAUAAUCGCGUGGAUAUGGCACGCAAGUUUCUACCGGGCACCGUAAAUGUCCGACUGGAGCCGUUCGGGCGGCUAUAAACAGACCUCAGGCCCGAAGCGUGGCGGCACCUGCCGCCGGUGGUAAAAAAGAUCGGAAGAGCACACGUCU
The “aptazyme ON/OFF ratio” value of the first is lower: 1.37 for the first, 1.54 for the second.

Compared with GGGUCGUACCGUCAUAAUCGCGUGGAUAUGGCACGCAAGUUUCUACCGGGCACCGUAAAUGUCCGACUGGAGCCGUUCGGGCGGCUAUAAACAGACCUCAGGCCCGAAGCGUGGCGGCACCUGCCGCCGGUGGUAAAAAAGAUCGGAAGAGCACACGUCU, GGGUCGUACCGGCAUAAUCGCGUGGAUAUGGCACGCAAGUUUCUACCGGGCACCGUAAAUGUCCGACUGGAGCCGUUCGGGCGGCUAUAAACAGACCUCAGGCCCGAAGCGUGGCGGCACCUGCCGCCGGUGGUAAAAAAGAUCGGAAGAGCACACGUCU is higher in “aptazyme ON/OFF ratio” value: 1.08 for the first, 1.12 for the second.

First: GGGUCGUACGUGUAUAAUCGCGUGGAUAUGGCACGCAAGUUUCUACCGGGCACCGUAAAUGUCCGACUGGAGCCGUUCGGGCGGCUAUAAACAGACCUCAGGCCCGAAGCGUGGCGGCACCUGCCGCCGGUGGUAAAAAAGAUCGGAAGAGCACACGUCU
Second: GGGUCGUACGUGAAUAAUCGCGUGGAUAUGGCACGCAAGUUUCUACCGGGCACCGUAAAUGUCCGACUGGAGCCGUUCGGGCGGCUAUAAACAGACCUCAGGCCCGAAGCGUGGCGGCACCUGCCGCCGGUGGUAAAAAAGAUCGGAAGAGCACACGUCU
The “aptazyme ON/OFF ratio” value of the first is lower: 1.2 for the first, 1.23 for the second.

Going from GGGUCGUACGUGGAUAAUCGCGUGGAUAUGGCACGCAAGUUUCUACCGGGCACCGUAAAUGUCCGACUGGAGCCGUUCGGGCGGCUAUAAACAGACCUCAGGCCCGAAGCGUGGCGGCACCUGCCGCCGGUGGUAAAAAAGAUCGGAAGAGCACACGUCU to GGGUCGUACGACCAUAAUCGCGUGGAUAUGGCACGCAAGUUUCUACCGGGCACCGUAAAUGUCCGACUGGAGCCGUUCGGGCGGCUAUAAACAGACCUCAGGCCCGAAGCGUGGCGGCACCUGCCGCCGGUGGUAAAAAAGAUCGGAAGAGCACACGUCU, the “aptazyme ON/OFF ratio” value falls from 1.15 to 1.03.

GGGUCGUACCGCAAUAAUCGCGUGGAUAUGGCACGCAAGUUUCUACCGGGCACCGUAAAUGUCCGACUGGAGCCGUUCGGGCGGCUAUAAACAGACCUCAGGCCCGAAGCGUGGCGGCACCUGCCGCCGGUGGUAAAAAAGAUCGGAAGAGCACACGUCU and GGGUCGUACCGCUAUAAUCGCGUGGAUAUGGCACGCAAGUUUCUACCGGGCACCGUAAAUGUCCGACUGGAGCCGUUCGGGCGGCUAUAAACAGACCUCAGGCCCGAAGCGUGGCGGCACCUGCCGCCGGUGGUAAAAAAGAUCGGAAGAGCACACGUCU are the same in “aptazyme ON/OFF ratio” value: 1.08 for the first, 1.08 for the second.

Going from GGGUCGUACCGCGAUAAUCGCGUGGAUAUGGCACGCAAGUUUCUACCGGGCACCGUAAAUGUCCGACUGGAGCCGUUCGGGCGGCUAUAAACAGACCUCAGGCCCGAAGCGUGGCGGCACCUGCCGCCGGUGGUAAAAAAGAUCGGAAGAGCACACGUCU to GGGUCGUACGUGCAUAAUCGCGUGGAUAUGGCACGCAAGUUUCUACCGGGCACCGUAAAUGUCCGACUGGAGCCGUUCGGGCGGCUAUAAACAGACCUCAGGCCCGAAGCGUGGCGGCACCUGCCGCCGGUGGUAAAAAAGAUCGGAAGAGCACACGUCU, the “aptazyme ON/OFF ratio” value rises from 1.05 to 1.17.

First: GGGUCGUACGUACAUAAUCGCGUGGAUAUGGCACGCAAGUUUCUACCGGGCACCGUAAAUGUCCGACUGGAGCCGUUCGGGCGGCUAUAAACAGACCUCAGGCCCGAAGCGUGGCGGCACCUGCCGCCGGUGGUAAAAAAGAUCGGAAGAGCACACGUCU
Second: GGGUCGUACGUUCAUAAUCGCGUGGAUAUGGCACGCAAGUUUCUACCGGGCACCGUAAAUGUCCGACUGGAGCCGUUCGGGCGGCUAUAAACAGACCUCAGGCCCGAAGCGUGGCGGCACCUGCCGCCGGUGGUAAAAAAGAUCGGAAGAGCACACGUCU
The “aptazyme ON/OFF ratio” value of the first is lower: 1.18 for the first, 1.28 for the second.
